# Test system: MS2 coat protein
# Experiment: apparent KD of MS2 coat protein; designed switch direction (-1 OFF switch, 1 ON switch): 1; higher = weaker reporter binding
# In short: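 Designed RNA switches sharing common flanks were transcribed on Illumina chips by stalled E. coli RNA polymerase. They were titrated with SNAP-549-labelled MS2 coat protein, from 0.7 or 1.5 nM doubling to 3 µM, in Tris-HCl pH 7.5 buffer with KCl, MgCl2, BSA, DTT, tRNA and Tween-20. Titrations ran without input, with 200 uM small-molecule ligand, or with an oligonucleotide input. The apparent KD of each design is the median over its clusters, after curve-fitting of normalised cluster fluorescence.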
# [1] = input ligand: microRNA oligo, concentration not stated
# [2] = Eterna round: R95, input ligand: FMN 200 uM
# [3] = Eterna round: R95, input ligand: microRNA oligo, concentration not stated
# [4] = Eterna round: R95, input ligand: none
sequence,measurement,setting,value
"UGGCUCAGAGCAGGAUAUAUGUGGUCACAUGAGGAUCACCCAUGUCUCGAGCUUCGGCUCGAGGCAUAGAAGGGCUCUGAGCCU [SSNG2/5-B3] (Eterna round: R96, puzzle: Same State NG 2)",apparent KD of MS2 coat protein,input ligand: FMN 200 uM,704 nM
same,apparent KD of MS2 coat protein,[1],21.4 nM
same,apparent KD of MS2 coat protein,input ligand: none,85.9 nM
UAAAAACAUGAGGAUCACCCAUGUCAAAAGACAUGAGGAUAUGUACAGACUUCGGUCUGUACAGAAGGCAUGAAAA [salish99_ss1_r3_094] (puzzle: Same State 1),apparent KD of MS2 coat protein,[2],33.3 nM
same,apparent KD of MS2 coat protein,[3],503 nM
same,apparent KD of MS2 coat protein,[4],362 nM
"UGAACCGUCACAGGAUAUCAUGCGAAAAUUGCGUGAGAAGGGUGGAUGUUGUGUUCAAAGUUAUACAUGAGGAUCACCCAUGUU [SameState NG1 #46] (Eterna round: R96, puzzle: Same State NG 1)",apparent KD of MS2 coat protein,input ligand: FMN 200 uM,29.8 nM
same,apparent KD of MS2 coat protein,[1],45.8 nM
same,apparent KD of MS2 coat protein,input ligand: none,65.5 nM
AACAAUCUAUCUGAGGAUAUCAUGAAAUAAACAUGAGGAUCACCCAUGUGCAUGAAAACUGCAUAUGAGAAGGCAGAUAGAUUGA [salish99_ss2_r3_038] (puzzle: Same State 2),apparent KD of MS2 coat protein,[2],54.8 nM
same,apparent KD of MS2 coat protein,[3],415 nM
same,apparent KD of MS2 coat protein,[4],472 nM
"GUACAGAUUAUAGGAUAUCACGUCGAUUAGACGUGAGAAGGAUAAUCCCACAUGAAUAUUAAUACAUGAGGAUCACCCAUGUAC [SSNG1/18-B2] (Eterna round: R96, puzzle: Same State NG 1)",apparent KD of MS2 coat protein,input ligand: FMN 200 uM,24.2 nM
same,apparent KD of MS2 coat protein,[1],22 nM
same,apparent KD of MS2 coat protein,input ligand: none,30.5 nM
"AUAUAUAUAAGGAAGGAUAUCUUAGAAAAAACAUGAGGAUCACCCAUGUAAAUAAAGAAUAAAUGGGAGAAGGUCCAUAUAUAUA [77%, More Tesla, 10] (Eterna round: R96, puzzle: Same State 2)",apparent KD of MS2 coat protein,[1],22 nM
"ACAUAGGUUUCAGGAUAUGGGUAAAUUCCCAACAUGAGGAUCACCCAUGUCCGUUGGGAUAACAUCCAGAAGGGAAGCCACAUA [MOD2 Eternabot Solution 1 (Score 87.5)] (Eterna round: R96, puzzle: Same State NG 2)",apparent KD of MS2 coat protein,input ligand: FMN 200 uM,215 nM
same,apparent KD of MS2 coat protein,[1],88.1 nM
same,apparent KD of MS2 coat protein,input ligand: none,390 nM
GUAGCAUGCAGGCAGGAUAUUCAUAUUAAAACAUGAGGAUCACCCAUGUAGGCCAAAAGGCCUUGGGAGAAGGGCCACAUGCUAC [Xeonanis - 19] (puzzle: Same State 2),apparent KD of MS2 coat protein,[2],34.9 nM
same,apparent KD of MS2 coat protein,[3],488 nM
same,apparent KD of MS2 coat protein,[4],842 nM
"AGAUCAUGACGAGGAUAUGGAACAUGAGGAUCACCCAUGUAUGUUCCAUAACGCGAAUGACGAAUCCAGAAGGCGUCGUGGUCA [JL SSNG2 1.10] (Eterna round: R96, puzzle: Same State NG 2)",apparent KD of MS2 coat protein,input ligand: FMN 200 uM,15.6 nM
same,apparent KD of MS2 coat protein,[1],112 nM
same,apparent KD of MS2 coat protein,input ligand: none,168 nM
"GUAGCAUACCGAGGAUAUUCAUUACAUGAGGAUCACCCAUGUUUAAAUAAUAGGCGAAAGCCUUGGGAGAAGGCGGAAUGCUAC [Xeonanis - 20 Mod71] (Eterna round: R96, puzzle: Same State NG 2)",apparent KD of MS2 coat protein,input ligand: FMN 200 uM,10.9 nM
same,apparent KD of MS2 coat protein,[1],10.1 nM
same,apparent KD of MS2 coat protein,input ligand: none,14 nM
"CUGAGCAAUCUAGGAUAUCACGUCGAAUAGACGUGAGAAGGAGAUCAUAACAUGAGGAUCACCCAUGUAUUACAUGAAGCUCAG [SSNG1/7-A1] (Eterna round: R96, puzzle: Same State NG 1)",apparent KD of MS2 coat protein,input ligand: FMN 200 uM,13.4 nM
same,apparent KD of MS2 coat protein,[1],11.6 nM
same,apparent KD of MS2 coat protein,input ligand: none,17.9 nM
"CUCCAUUGGGUAGGAUAUCUAGGAUAUGGGAAAGACUAAGUCUGUAGGUCACCUAACCCAGAUGGAGAGAAGGACCCAACUCUC [pwkr ssNG2 2FMN + F9.41] (Eterna round: R96, puzzle: Same State NG 2)",apparent KD of MS2 coat protein,input ligand: FMN 200 uM,8.17 nM
same,apparent KD of MS2 coat protein,[1],2.07 nM
same,apparent KD of MS2 coat protein,input ligand: none,12.3 nM
"UUAAUUAAUUAAUUAUACAUGAGGAUCACCCAUGUAAGUGAUCAGGAUAUCAGCUCGAUUAGAGCUGAGAAGGGAUACAUGUAA [SSNG3/13-A2] (Eterna round: R96, puzzle: Same State NG 3)",apparent KD of MS2 coat protein,input ligand: FMN 200 uM,142 nM
same,apparent KD of MS2 coat protein,[1],164 nM
same,apparent KD of MS2 coat protein,input ligand: none,191 nM
"CCGUAGAUGGAAGGAUAUGGAGCCUUAUUGGCUCCAGAAGGUUCAAAACAUGAGGAUCACCCAUGUACGGCGGUCAAUAGACCG [Eli NG1ss - 82] (Eterna round: R96, puzzle: Same State NG 1)",apparent KD of MS2 coat protein,input ligand: FMN 200 uM,111 nM
same,apparent KD of MS2 coat protein,[1],226 nM
same,apparent KD of MS2 coat protein,input ligand: none,245 nM
"AAUUCAAACAGAGGAUAUUGUUUAUCUCUAUUGCAAGAAGGCUGAUCUUACUACUUACUUAUGAAACAUGAGGAUCACCCAUGU [JR_SSNG1_Sub019] (Eterna round: R96, puzzle: Same State NG 1)",apparent KD of MS2 coat protein,[1],29.3 nM
"GUUACAUGAGGAUCACCCAUGUAUGUGUGGGAGUAAGUGUCUUAGGAUAUCUAGUAUUAAAUUUAAGAGAAGGAAGAUUGUUGU [JMF's solution 57] (Eterna round: R96, puzzle: Same State NG 3)",apparent KD of MS2 coat protein,input ligand: FMN 200 uM,140 nM
same,apparent KD of MS2 coat protein,[1],78.9 nM
same,apparent KD of MS2 coat protein,input ligand: none,110 nM
"UGAACCGUCACAGGAUAUCAUGCGAAAAUUGCGUGAGAAGGGUGGAUGUUGUGUUCAAAGAUGUACAUGAGGAUCACCCAUGUU [SameState NG1 #47] (Eterna round: R96, puzzle: Same State NG 1)",apparent KD of MS2 coat protein,input ligand: FMN 200 uM,61 nM
same,apparent KD of MS2 coat protein,[1],85.7 nM
same,apparent KD of MS2 coat protein,input ligand: none,170 nM
"AAAGAAAACAUAGGAUAUGUAACAUGAGGAUCACCCAUGUGUAGCCCGUAAGGGAUGACGGAUGGACAGAAGGAUGGUCUCAGG [Default title] (Eterna round: R96, puzzle: Same State NG 2)",apparent KD of MS2 coat protein,input ligand: FMN 200 uM,403 nM
same,apparent KD of MS2 coat protein,[1],155 nM
same,apparent KD of MS2 coat protein,input ligand: none,104 nM
"AGAUCAUGACGAGGAUAUCCGACAUGAGGAUCACCCAUGUAUGUCGGAGGACGCGUACGUCCAAAGGAGAAGGCGUCGUGGUCA [JL SSNG2 1.02] (Eterna round: R96, puzzle: Same State NG 2)",apparent KD of MS2 coat protein,input ligand: FMN 200 uM,17.4 nM
same,apparent KD of MS2 coat protein,[1],48.4 nM
same,apparent KD of MS2 coat protein,input ligand: none,100 nM
"UUGAAGAAUUAAGGAUAUUGAGUACAUAUGUAAAACAUGAGGAUCACCCAUGUGGGUUGCGGUAUCGAGAAGGUAAAUUAAUAG [Mat - same State NG 2 - JL mod - D70] (Eterna round: R96, puzzle: Same State NG 2)",apparent KD of MS2 coat protein,input ligand: FMN 200 uM,87 nM
same,apparent KD of MS2 coat protein,[1],67.6 nM
same,apparent KD of MS2 coat protein,input ligand: none,96.3 nM
AGAAAACAUGAGGAUCACCCAUGUAUAGUGAAUACAGGAUAUCAUCGACGGAAUAGUUGAUGAGAAGGGUGAUCGC [Gebiatan] (puzzle: Same State 1),apparent KD of MS2 coat protein,[2],13.2 nM
same,apparent KD of MS2 coat protein,[3],14.4 nM
same,apparent KD of MS2 coat protein,[4],10.4 nM
"GUUACAUGAGGAUCACCCAUGUAUGUGUGGGAGUAAGUGUCUUAGGAUAUCUAUUAUUUAAUUUGAGAGAAGGAAGAUUGUUGU [JMF's solution 28] (Eterna round: R96, puzzle: Same State NG 3)",apparent KD of MS2 coat protein,input ligand: FMN 200 uM,107 nM
same,apparent KD of MS2 coat protein,[1],97.7 nM
same,apparent KD of MS2 coat protein,input ligand: none,107 nM
GUAAAACAUGAGGAUCACCCAUGUAAUAAUAUGGGAGGAUAUCAGAAUGUAUGUAUGUAAUGAGAAGGCCUAAAUG [Mat - Same State 1 - Mod of Eli - D74] (puzzle: Same State 1),apparent KD of MS2 coat protein,[2],101 nM
same,apparent KD of MS2 coat protein,[3],1610 nM
same,apparent KD of MS2 coat protein,[4],1120 nM
"GCGGUCUGACAUGAGGAUCACCCAUGUGGAAUAAAUACGGGUUAGGAUAUCUUGAGGAUCACCCAAGAGAAGGGAUGGACCGCU (Eterna round: R96, puzzle: Same State NG 3)",apparent KD of MS2 coat protein,input ligand: FMN 200 uM,32.1 nM
same,apparent KD of MS2 coat protein,[1],22.8 nM
same,apparent KD of MS2 coat protein,input ligand: none,38.4 nM
"GCCAACGCAUGAGGAUAUGGCACCUUAUUGGUGCCAGAAGGUAUGUGUAUUCACAUGAGGAUCACCCAUGUAUUAUAGUUGGCA [Fiskers NG1ss - 17] (Eterna round: R96, puzzle: Same State NG 1)",apparent KD of MS2 coat protein,input ligand: FMN 200 uM,53.7 nM
same,apparent KD of MS2 coat protein,[1],146 nM
same,apparent KD of MS2 coat protein,input ligand: none,183 nM
"GGUAAGAAUUAAGGAUAUUGAAUACAUAUGUUUAACAUGAGGAUCACCCAUGUGGGUUGCGGUGUCGAGAAGGUAAAUUAAUAG [Mat - same State NG 2 - JL mod - D100] (Eterna round: R96, puzzle: Same State NG 2)",apparent KD of MS2 coat protein,input ligand: FMN 200 uM,262 nM
same,apparent KD of MS2 coat protein,[1],166 nM
same,apparent KD of MS2 coat protein,input ligand: none,305 nM
"GUGGUCAGACAUGAGGAUCACCCAUGUGGAAUAAAUAAGGUUUAGGAUAUGGAAUAUAGGAUAUACCAGAAGGAAAGGUUGGUG (Eterna round: R96, puzzle: Same State NG 3)",apparent KD of MS2 coat protein,input ligand: FMN 200 uM,176 nM
same,apparent KD of MS2 coat protein,[1],75.4 nM
same,apparent KD of MS2 coat protein,input ligand: none,133 nM
"AGAGGAGGAGCAGGAUAUUCGAAGGAGGACGUGGAAGAAGGGUUCAUGCGAUGACAUGAGGAUCACCCAUGUACCGCGCGUCGA [AK SSNG1-V2-15] (Eterna round: R96, puzzle: Same State NG 1)",apparent KD of MS2 coat protein,input ligand: FMN 200 uM,381 nM
same,apparent KD of MS2 coat protein,[1],126 nM
same,apparent KD of MS2 coat protein,input ligand: none,484 nM
"ACCCACGACGGAGGAUAUGGGCACUCGGCGGAAUAAACCGCCAUAACAUGAGGAUCACCCAUGUCCCAGAAGGCCGUCGCAAUC [Esdirece] (Eterna round: R96, puzzle: Same State NG 2)",apparent KD of MS2 coat protein,input ligand: FMN 200 uM,109 nM
same,apparent KD of MS2 coat protein,[1],404 nM
same,apparent KD of MS2 coat protein,input ligand: none,712 nM
AGUCCAGCCUGAGCUGGACAAAAGCAUGUACAUGAGGAUCACCCAUGUCAUGUACAAGCUUUUUGCACGUCUUAAAA [Mat - hsa-mir-208a - Mod of JL - D13] (puzzle: Sensor for hsa-mir-208a),apparent KD of MS2 coat protein,[2],1120 nM
same,apparent KD of MS2 coat protein,[3],16.4 nM
same,apparent KD of MS2 coat protein,[4],542 nM
AUUAAACAUGAGGAUCACCCAUGUCAACAAAGUCGAGGAUAUGGGCAUAUUAUCUUCUUUCCAGAAGGCGAAUAAU [salish99_ss1_r3_089] (puzzle: Same State 1),apparent KD of MS2 coat protein,[2],431 nM
same,apparent KD of MS2 coat protein,[3],136 nM
same,apparent KD of MS2 coat protein,[4],404 nM
